The text below walks through data of patent publication US20060270596A1 (CENTRE NATIONAL DE LA RECHERCHE SCIENTIFIQUE CNRS, published 2006).

The target of assay [1] is T1, THAP1ΔQRCRR mutant (deletion of residues 168-172) (human, UniProt Q9NVV9 1-213).
T1 sequence: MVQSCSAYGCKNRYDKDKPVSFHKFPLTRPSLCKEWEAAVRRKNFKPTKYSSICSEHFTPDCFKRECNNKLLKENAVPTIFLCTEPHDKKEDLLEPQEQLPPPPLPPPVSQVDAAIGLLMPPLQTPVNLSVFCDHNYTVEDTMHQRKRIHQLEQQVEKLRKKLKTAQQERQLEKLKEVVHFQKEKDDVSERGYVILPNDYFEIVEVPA
Kind of assay: yeast two-hybrid, Par4 wt bait. On the procedure:
for mutant THAP1ΔQRCRR. The resulting PCR fragments were digested with EcoRI and BamHI, and cloned in frame downstream of the Gal4 Binding Domain (Gal4-BD) in pGBKT7 two-hybrid vector (Clontech) to generate pGBKT7-THAP1-RR/AA and -Δ(QRCRR), or downstream of the Enhanced Green Fluorescent Protein (EGFP)ORF in pEGFP.C2 vector (Clontech) to generate pEGFP.C2-THAP1-RR/AA and -Δ(QRCRR). THAP1RR/AA and THAP1ΔQRCRR THAP1 mutants were then tested in the three THAP1/Par4 interaction assays (two-hybrid assay, in vitro THAP1/Par4 interaction assay, in vivo THAP1/Par4 interaction assay) as described above for the THAP1-C1, -C2, -C3, -N1, -N2 or -N3 mutants.

Another assay addresses T2, human THAP3, full length (human, UniProt Q8WTV1 1-239).
T2 construct: Two-hybrid fusion or 35S-labelled in vitro translation product
T2 sequence: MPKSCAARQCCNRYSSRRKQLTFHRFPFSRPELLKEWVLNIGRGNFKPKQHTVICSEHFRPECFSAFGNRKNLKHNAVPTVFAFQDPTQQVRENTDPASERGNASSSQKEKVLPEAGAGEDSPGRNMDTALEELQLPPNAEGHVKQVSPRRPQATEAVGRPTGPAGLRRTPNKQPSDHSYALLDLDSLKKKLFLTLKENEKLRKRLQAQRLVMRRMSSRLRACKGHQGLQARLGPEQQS
Kind of assay: yeast two-hybrid with Par-4 wild type bait. On the procedure: (§1) To assess whether THAP2 and THAP3 are able to interact with Par-4, yeast two hybrid assays using Par-4 wild type bait (FIG. 10B) and in vitro GST pull down assays (FIG. 10C), were performed as described above (Examples 4 and 5). As shown in FIGS. 10B and 10C, THAP2 and THAP3 are able to interact with Par-4. A sequence alignment showing the comparison of the THAP domain and the PAR4-binding domain between THAP1, THAP2 and THAP3 is shown in FIG. 10A.

For another assay, the target named is T3, human THAP2, full length (human, UniProt Q9H0W7 1-228).
T3 construct: Two-hybrid fusion or 35S-labelled in vitro translation product
Briefly: yeast two-hybrid with Par-4 wild type bait. The procedure:
as §1

Assay [2] has as its target T4, human THAP1 (THanatos-Associated-Protein-1), full length (human, UniProt Q9NVV9 1-213).
T4 construct: these tags are not written into the chain; also called hTHAP1; THAP1 wild type
T4 sequence: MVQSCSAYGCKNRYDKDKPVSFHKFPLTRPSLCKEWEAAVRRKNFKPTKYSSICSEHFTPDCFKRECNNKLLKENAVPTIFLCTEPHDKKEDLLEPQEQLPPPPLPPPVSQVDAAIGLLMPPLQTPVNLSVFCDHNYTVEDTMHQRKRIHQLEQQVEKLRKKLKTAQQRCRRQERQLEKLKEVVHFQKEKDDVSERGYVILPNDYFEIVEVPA
Kind of assay: yeast two-hybrid, both orientations. On the procedure: To identify potential protein partners of THAP1, screening of the two-hybrid HEVEC cDNA library was performed using as a bait the human THAP1 full length cDNA inserted into the […] two-hybrid system 3 vector pGBKT7 (Clontech). Briefly, the full-length coding region of THAP1 was amplified by PCR from HEVEC cDNA with primers 2HMR10 (5′-[…]-3′) (SEQ ID NO: 187) and 2HMR9 (5′-[…]-3′) (SEQ ID NO: 188), digested with EcoRI and BamHI, and cloned in frame downstream of the Gal4 Binding Domain (Gal4-BD) in pGBKT7 vector to generate pGBKT7-THAP1. pGBKT7-THAP1 was then cotransformed with the pGAD424-HEVEC cDNA library in yeast strain AH109 (Clontech). 1.5×10⁷ yeast transformants were screened and positive protein interactions were selected by His and Ade double auxotrophy according to manufacturer's instructions ([…] two-hybrid system 3, Clontech). The plates were incubated at 30° C. for 5 days. Plasmid DNA was extracted from these positive colonies and used to verify the specificity of the interaction by cotransformation in AH109 with pGBKT7-THAP1 or control baits pGBKT7, pGBKT7-lamin and pGBKT7-hevin. […] Positive interaction between THAP1 and Par4 was confirmed using full length Par4 bait (pGBKT-Par4) and prey (pGADT7-Par4). […]

Assay [3] addresses T5, THAP1-C2 deletion mutant (amino acids 120-213) (human, UniProt Q9NVV9 120-213).
T5 construct: Gal4 fusion, in vitro translation product or GFP fusion according to assay
T5 sequence: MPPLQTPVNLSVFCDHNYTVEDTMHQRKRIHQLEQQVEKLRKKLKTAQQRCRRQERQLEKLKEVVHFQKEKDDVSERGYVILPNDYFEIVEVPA
Briefly: yeast two-hybrid, Par4 wt bait.

In assay [4] the target is T6, THAP1-C3 deletion mutant (amino acids 143-213) (human, UniProt Q9NVV9 143-213).
T6 construct: Gal4 fusion, in vitro translation product or GFP fusion according to assay
T6 sequence: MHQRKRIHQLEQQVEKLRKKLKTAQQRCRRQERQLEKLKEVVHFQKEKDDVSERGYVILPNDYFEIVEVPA
Briefly: yeast two-hybrid, Par4 wt bait.

Assay [5] has as its target T7, THAP1-N2 deletion mutant (amino acids 1-166) (human, UniProt Q9NVV9 1-166).
T7 construct: Gal4 fusion, in vitro translation product or GFP fusion according to assay
T7 sequence: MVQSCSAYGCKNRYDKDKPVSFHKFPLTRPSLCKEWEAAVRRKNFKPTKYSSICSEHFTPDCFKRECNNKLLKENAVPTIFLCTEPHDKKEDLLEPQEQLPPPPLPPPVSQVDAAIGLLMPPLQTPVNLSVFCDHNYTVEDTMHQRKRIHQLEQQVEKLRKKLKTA
Kind of assay: yeast two-hybrid, Par4 wt bait.

Assay [6] has as its target T8, THAP1-N3 deletion mutant (amino acids 1-192) (human, UniProt Q9NVV9 1-192).
T8 construct: Gal4 fusion, in vitro translation product or GFP fusion according to assay
T8 sequence: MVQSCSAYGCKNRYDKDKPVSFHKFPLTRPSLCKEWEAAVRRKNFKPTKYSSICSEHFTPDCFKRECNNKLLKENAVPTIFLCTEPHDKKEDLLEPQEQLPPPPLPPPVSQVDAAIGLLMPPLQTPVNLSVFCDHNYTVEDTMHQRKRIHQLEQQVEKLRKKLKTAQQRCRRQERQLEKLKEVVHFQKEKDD
Briefly: yeast two-hybrid, Par4 wt bait.

The target of assay [7] is T9, THAP1-C1 deletion mutant (amino acids 90-213) (human, UniProt Q9NVV9 90-213).
T9 construct: Gal4 fusion, in vitro translation product or GFP fusion according to assay; also called THAP1-CL; THAP1ΔTHAP
T9 sequence: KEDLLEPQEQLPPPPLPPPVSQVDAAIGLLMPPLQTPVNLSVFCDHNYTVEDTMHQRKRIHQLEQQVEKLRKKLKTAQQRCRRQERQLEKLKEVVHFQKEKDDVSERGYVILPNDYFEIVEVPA
Briefly: yeast two-hybrid, Par4 wt bait.

Assay [8] deals with T10, THAP1-N1 deletion mutant (amino acids 1-90) (human, UniProt Q9NVV9 1-90).
T10 construct: Gal4 fusion, in vitro translation product or GFP fusion according to assay; also called zinc finger domain of THAP1
T10 sequence: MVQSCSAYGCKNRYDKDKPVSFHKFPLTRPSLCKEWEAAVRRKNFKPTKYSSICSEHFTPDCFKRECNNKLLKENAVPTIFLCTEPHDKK
Kind of assay: yeast two-hybrid, Par4 wt bait.

For assay [9], the target named is T11, THAP1 chemokine-binding domain/IgG1-Fc fusion constructed as described in Example 18B (THAP1 amino acids … (human, UniProt Q5RCE4 140-213 (Pongo abelii entry))).
T11 construct: Secreted with an immunoglobulin kappa light chain signal peptide (left out); also called Chemotrap-I; Chemotrap; not shown: human IgG1-Fc polypeptide from the N-terminal hinge region to the native C-terminus (hinge, CH2, CH3)
T11 sequence: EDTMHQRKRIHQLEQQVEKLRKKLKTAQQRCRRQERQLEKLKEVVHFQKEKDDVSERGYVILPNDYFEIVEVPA
Kind of assay: surface plasmon resonance (Biacore), Chemotrap-I coupled to the chip, CCL5/RANTES at 25, 50, 100 and 200 nM as analyte. The source says: (§2) In this Example, surface plasmon resonance (SPR) was used to determine the dissociation constant for the binding of Rantes/CCL5 to a THAP1 chemokine binding domain/IgG1-Fc fusion prepared as described in Example 18B. All SPR measurements were made using a Biacore 3000 system (Biacore, Uppsala Sweden). […] Dextran layer free biosensors, C1 type, were used to assay specific interaction between Rantes/CCL5 and the THAP1 chemokine-binding domain/IgG1-Fc fusion. Purified recombinant human Rantes/CCL5 (purchased from Chemicon) were used as analyte protein at a fixed concentration in the fluid phase (10 mM HEPES pH 7.4, 150 mM NaCl, 3 mM EDTA, 0.005% P20 surfactant, as a running buffer), and at a constant flow of 20 μl/minute. To determine the binding kinetics, association and dissociation curves were established for several increasing concentration of chemokine: 25 nM, 50 nM, 100 nM and 200 nM for CCL5, respectively. Chemokine was injected during the association phase for 4 minutes (20 μl/minute). The dissociation phase was carried out over a period of 5 minutes. Between each phase of association-dissociation, the flow cells were regenerated by injection of 0.05% SDS (30 seconds at a flow rate of 20 μl/minute). Biaevaluation (Biacore) software was used for calculations of association and dissociation kinetic constants. […]
(§3) The dissociation constant was calculated to be 49 nM.

The target of assay [10] is T11, THAP1 chemokine-binding domain/IgG1-Fc …. Briefly: SPR (Biacore 3000); Fc fusion amine-coupled to a C1 sensor chip, Rantes/CCL5 as analyte at 25, 50, 100 and 200 nM; KD=kd/ka.
Text: as §2, §3
A general note: In SPR one partner is held on a chip, and binding of the other changes the refractive index at the surface.

T3 sequence (Q9H0W7 whole entry, the tested form may be a part): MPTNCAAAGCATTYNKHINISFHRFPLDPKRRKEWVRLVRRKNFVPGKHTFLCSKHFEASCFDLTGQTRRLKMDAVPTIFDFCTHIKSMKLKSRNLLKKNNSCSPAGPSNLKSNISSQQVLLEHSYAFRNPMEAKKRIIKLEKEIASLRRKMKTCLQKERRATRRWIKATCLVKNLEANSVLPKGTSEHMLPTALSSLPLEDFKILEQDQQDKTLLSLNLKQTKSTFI

B1: human prostate apoptosis response-4 (PAR4), full length (other)
chain: MATGGYRTSSGLGGSTTDFLEEWKAKREKMRAKQNPPGPAPPGGGSSDAAGKPPAGALGTPAAAAANELNNNLPGGAPAAPAVPGPGGVNCAVGSAMLTRAPPARGPRRSEDEPPAASASAAPPPQRDEEEPDGVPEKGKSSGPSARKGKGQIEKRKLREKRRSTGVVNIPAAECLDEYEDDEAGQKERKREDAITQQNTIQNEAVNLLDPGSSYLLQEPPRTVSGRYKSTTSVSEEDVSSRYSRTDRSGFPRYNRDANVSGTLVSSSTLEKKIEDLEKEVVTERQENLRLVRLMQDKEEMIGKLKEEIDLLNRDLDDIEDENEQLKQENKTLLKVVGQLTR
notes: Gal4-BD or Gal4-AD fusion in two-hybrid; also called Par4 wild type
In the case of B1, the binding result in assay [1] is “no binding”; with human THAP3, full length, “binds”; with human THAP2, full length, “binds”; in assay [2] it was “binds”; in assay [3], “binds”; in [4] it was “binds”. Further, the binding result is “no binding” in assay [5], “binds” in assay [6], “binds” in [7] and “no binding” in [8].

B2: purified recombinant human Rantes/CCL5 (purchased from Chemicon) (ligand)
chain: SPYSSDTTPCCFAYIARPLPRAHIKEYFYTSGKCSNPAVVFVTRKNRQVCANPEKKWVREYINSLEMS
notes: Bought protein; also called recombinant Rantes/CCL5 human chemokine
On to B2, for which, in [9], the koff was determined as 0.00229 s⁻¹ and the kon amounted to 46400 M⁻¹ s⁻¹. Besides, the Kd in assay [10] was 49 nM.

The term koff denotes the rate constant with which the complex falls apart. As usually defined, the kon is the second-order rate constant of association. Usually Kd stands for the free concentration of one partner at which half of the binding sites on the other are occupied at equilibrium, for simple one-to-one binding.
